Test results from article PMC11109279, “Heliorhodopsin-mediated light-modulation of ABC transporter” (Nature Communications, 2024).

Experiments:
OmrE (OmrE-His) = molecular target: T1, OmrE (OmrE-His) (Omithinimicrobium cerasi strain USBA17B2, UniProt A0A285VWG3 1-661); assay: ITC; replicate #2
T1 chain: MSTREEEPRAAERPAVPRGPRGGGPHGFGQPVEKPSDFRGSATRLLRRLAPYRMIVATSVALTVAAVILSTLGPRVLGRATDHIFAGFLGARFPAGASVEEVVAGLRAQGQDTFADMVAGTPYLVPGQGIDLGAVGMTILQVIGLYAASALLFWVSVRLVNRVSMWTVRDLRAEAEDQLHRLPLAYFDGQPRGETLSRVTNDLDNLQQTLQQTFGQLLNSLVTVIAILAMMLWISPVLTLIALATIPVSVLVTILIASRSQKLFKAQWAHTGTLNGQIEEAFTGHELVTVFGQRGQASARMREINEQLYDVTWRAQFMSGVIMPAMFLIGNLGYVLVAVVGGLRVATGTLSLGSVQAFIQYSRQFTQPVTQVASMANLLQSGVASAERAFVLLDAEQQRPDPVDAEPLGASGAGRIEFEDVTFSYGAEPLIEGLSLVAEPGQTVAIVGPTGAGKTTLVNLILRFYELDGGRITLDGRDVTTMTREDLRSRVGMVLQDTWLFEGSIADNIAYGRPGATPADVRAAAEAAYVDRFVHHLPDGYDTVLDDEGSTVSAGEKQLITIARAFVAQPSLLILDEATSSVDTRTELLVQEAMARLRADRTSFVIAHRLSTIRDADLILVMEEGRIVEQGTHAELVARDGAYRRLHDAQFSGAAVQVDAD

[1] = molecular target: T2, NBD-truncated OmrDE (OmrD^tcE^tc) (Omithinimicrobium cerasi strain USBA17B2); assay: ITC; replicate #2
T2 chain 1: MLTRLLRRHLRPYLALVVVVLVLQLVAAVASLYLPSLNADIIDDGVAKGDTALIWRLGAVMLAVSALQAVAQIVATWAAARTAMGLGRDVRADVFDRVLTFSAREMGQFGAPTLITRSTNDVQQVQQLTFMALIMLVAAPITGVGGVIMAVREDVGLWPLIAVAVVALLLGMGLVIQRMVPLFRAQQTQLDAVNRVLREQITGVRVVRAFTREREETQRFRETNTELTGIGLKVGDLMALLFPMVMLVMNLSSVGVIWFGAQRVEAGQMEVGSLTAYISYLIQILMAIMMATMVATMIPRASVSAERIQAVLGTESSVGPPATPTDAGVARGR
T2 chain 2: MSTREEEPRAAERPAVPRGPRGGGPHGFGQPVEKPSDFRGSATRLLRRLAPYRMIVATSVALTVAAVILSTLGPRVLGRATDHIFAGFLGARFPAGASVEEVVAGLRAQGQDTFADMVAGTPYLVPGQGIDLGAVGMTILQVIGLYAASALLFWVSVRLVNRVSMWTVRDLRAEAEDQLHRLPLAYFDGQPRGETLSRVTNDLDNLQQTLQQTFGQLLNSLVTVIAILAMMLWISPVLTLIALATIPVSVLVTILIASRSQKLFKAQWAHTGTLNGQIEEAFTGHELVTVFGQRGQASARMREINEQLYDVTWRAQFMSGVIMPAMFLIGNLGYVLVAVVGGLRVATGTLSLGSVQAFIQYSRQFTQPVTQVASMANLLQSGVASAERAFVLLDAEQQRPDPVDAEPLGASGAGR

[2] = molecular target: T3, heterodimeric multidrug resistance ABC transporter OmrDE (Omithinimicrobium cerasi strain USBA17B2, UniProt A0A285VW85 1-577; A0A285VWG3 1-661); assay: ITC; replicate #2
T3 chain 1: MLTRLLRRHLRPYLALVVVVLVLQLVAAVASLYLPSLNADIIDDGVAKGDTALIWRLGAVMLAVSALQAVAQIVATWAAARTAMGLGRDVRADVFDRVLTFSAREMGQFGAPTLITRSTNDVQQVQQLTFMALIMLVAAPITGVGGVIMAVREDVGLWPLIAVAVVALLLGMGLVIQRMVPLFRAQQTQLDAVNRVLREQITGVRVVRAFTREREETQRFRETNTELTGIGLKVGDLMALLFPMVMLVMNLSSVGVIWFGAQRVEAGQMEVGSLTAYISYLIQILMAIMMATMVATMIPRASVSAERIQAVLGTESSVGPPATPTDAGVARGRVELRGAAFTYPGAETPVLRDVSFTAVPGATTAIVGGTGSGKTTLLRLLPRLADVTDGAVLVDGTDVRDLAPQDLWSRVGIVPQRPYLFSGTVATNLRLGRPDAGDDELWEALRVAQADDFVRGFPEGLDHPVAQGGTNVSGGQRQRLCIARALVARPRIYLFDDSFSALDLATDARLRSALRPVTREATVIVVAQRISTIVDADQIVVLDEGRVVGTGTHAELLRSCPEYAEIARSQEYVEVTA
T3 chain 2: T1 chain

[3] = molecular target: T4, heterodimeric multidrug resistance ABC transporter OmrDE (Omithinimicrobium cerasi strain USBA17B2, UniProt A0A285VW85 1-577; A0A285VWG3 1-661); assay: cell-based or functional assay
T4 sequence (looked up) 1: T3 chain 1
T4 sequence (looked up) 2: T1 chain

[4] = molecular target: T3, heterodimeric multidrug resistance ABC …; assay: ITC; replicate #4
[5] = molecular target: T2, NBD-truncated OmrDE (OmrD^tcE^tc); assay: ITC; replicate #1
[6] = molecular target: T4, heterodimeric multidrug resistance ABC …; assay: cell-based or functional assay; remark: listed apart in the source

B1: Omithinimicrobium cerasi strain USBA17B2 heliorhodopsin (OcHeR) WT (natural protein, UniProt A0A285W045 1-266, looked up)
chain: MGSTGTGSTASTTRADESRYAGLRRYNVVAAVVHAAQAVAVVVLATDFTLPMTASYLAGPPGSPPGEAVTLWDVPIPLAIATFLALSALFHVIVASPPFFDRYRRGLAQGHNYFRWVEYSLSSSLMIVIIAQLVGISDVVALLGLFGVNASMILFGWLQEKYHQPGDGGWLPFVFGCLAGAVPWVGIVLYTIAPGSTSGAEPPGFVYGIIVSLFLFFNVFALVQWLQYRPVGRFRDYLLGERLYITLSLVAKSALAWQIFGGTLAT
modifications: retinal Schiff base linked to K252
notes: gene codon-optimized for E. coli and chemically synthesized; source: E. coli C43 (DE3), purified (DDM-solubilized membrane fraction, Ni2+-NTA agarose)
For B1, the Kd (OmrE (OmrE-His)) was 24 µM, the Kd [1] was 29 µM and the Kd [2] was 122 µM. The “kcat/Km of ATP hydrolysis of purified OmrDE with OcHeR WT (1:1), absence of light” value [3] was 37.7 M^−1 S^−1, the “kcat/Km of ATP hydrolysis of purified OmrDE with OcHeR WT (1:1), presence of light (532 nm)” value [3] was 58.4 M^−1 S^−1 and the Kd [4] was 62 µM. For the same binder, the Kd [5] was 42 µM, the “DAPI translocation capacity of OmrDE co-expressed with OcHeR WT in IMVs at 15 min, presence of light against absence of light” value [6] was 3 fold and the “half-life (t1/2) of the G state (554 nm) of the OcHeR photocycle with OmrDE against OcHeR WT alone” value [6] was 1.6 fold. The “half-life (t1/2) of the O state (618 nm) of the OcHeR photocycle with OmrDE against OcHeR WT alone” value [6] was 2.2 fold.
